Data from patent US20260167710A1 (GlaxoSmithKline, published 2026).

Assays:
human IL-33 [1] = biological target: T1, human IL-33 (human, Biotinylated in Example 2; the site is not stated.); assay: cell-based or functional assay
T1 chain: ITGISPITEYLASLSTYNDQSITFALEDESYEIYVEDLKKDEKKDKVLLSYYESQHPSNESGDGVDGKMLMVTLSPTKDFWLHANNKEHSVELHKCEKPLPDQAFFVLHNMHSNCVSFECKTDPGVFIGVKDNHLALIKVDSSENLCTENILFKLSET

[2] = biological target: T2, cynomolgus recombinant neonatal receptor (FcRn) (cynomolgus monkey, UniProt Q8SPV9 24-297; Q8SPW0 21-119); assay: SPR (ProteOn XPR36), antibody captured by protein L, FcRn as analyte, equilibrium fit, pH 7.4, 25 C
T2 construct: extracellular domain; beta-2-microglobulin is not mentioned; also called cyno FcRn; cynomolgus monkey FcRn

[3] = biological target: T3, human recombinant neonatal receptor (FcRn) (human, UniProt P55899 24-297; P61769 21-119); assay: as above
T3 construct: also called human FcRn; human recombinant soluble FcRn

human IL-33 [4] = biological target: T1, human IL-33; assay: cell-based or functional assay
cynomolgus IL-33 = biological target: T4, cynomolgus IL-33 (cynomolgus monkey, UniProt A0A2K5W3I1 112-269); assay: MSD-SET solution equilibrium titration, 25 C, n = 3
T4 construct: also called cyno IL-33; cynomolgus monkey IL-33
T4 sequence: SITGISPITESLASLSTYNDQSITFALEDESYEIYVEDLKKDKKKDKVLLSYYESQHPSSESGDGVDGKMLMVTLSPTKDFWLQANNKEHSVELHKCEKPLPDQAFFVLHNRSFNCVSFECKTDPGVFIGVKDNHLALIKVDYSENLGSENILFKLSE

human IL-33 [5] = biological target: T1, human IL-33; assay: cell-based or functional assay

T2 sequence (Q8SPV9 24-297 limits assumed, chain 1 of 2): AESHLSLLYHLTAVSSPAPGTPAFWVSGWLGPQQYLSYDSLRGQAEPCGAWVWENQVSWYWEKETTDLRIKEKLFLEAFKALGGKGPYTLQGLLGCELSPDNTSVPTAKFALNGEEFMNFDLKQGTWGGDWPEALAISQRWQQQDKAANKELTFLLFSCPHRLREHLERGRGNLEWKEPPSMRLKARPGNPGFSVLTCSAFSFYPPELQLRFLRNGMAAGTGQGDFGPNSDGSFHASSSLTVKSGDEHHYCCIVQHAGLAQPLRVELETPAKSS
T2 sequence (Q8SPW0 21-119 limits assumed, chain 2 of 2): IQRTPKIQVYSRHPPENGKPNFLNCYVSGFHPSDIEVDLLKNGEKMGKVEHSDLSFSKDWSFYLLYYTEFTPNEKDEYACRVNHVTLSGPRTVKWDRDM

- pIC50, inhibition of 30 ng/mL IL-33 induced IFN-γ secretion from whole blood, non-pre-complexed, donor #91955 (human IL-33 [1]): 9.31
- pIC50, inhibition of 30 ng/mL IL-33 induced IFN-γ secretion from whole blood, non-pre-complexed, donor #91986 (human IL-33 [1]): 8.51
- pIC50, inhibition of 30 ng/mL IL-33 induced IFN-γ secretion from whole blood, non-pre-complexed, donor #92251 (human IL-33 [1]): 9.13
- Kd [2]: 2560 nM
- Kd [3]: 1230 nM
- IC50, inhibition of 100 ng/mL IL-33/IL-12 induced IFN-γ secretion from whole blood, pre-complexed, Mean (human IL-33 [4]): 3.9 nM
- IC50, inhibition of 100 ng/mL IL-33/IL-12 induced IFN-γ secretion from whole blood, pre-complexed, donor #91232 (human IL-33 [4]): 2.79 nM
- IC50, inhibition of 100 ng/mL IL-33/IL-12 induced IFN-γ secretion from whole blood, pre-complexed, donor #91845 (human IL-33 [4]): 5.75 nM
- IC50, inhibition of 100 ng/mL IL-33/IL-12 induced IFN-γ secretion from whole blood, pre-complexed, donor #91865 (human IL-33 [4]): 0.88 nM
- IC50, inhibition of 100 ng/mL IL-33/IL-12 induced IFN-γ secretion from whole blood, pre-complexed, donor #92023 (human IL-33 [4]): 3.43 nM
- IC50, inhibition of 100 ng/mL IL-33/IL-12 induced IFN-γ secretion from whole blood, pre-complexed, donor #92186 (human IL-33 [4]): 3.01 nM
- IC50, inhibition of 100 ng/mL IL-33/IL-12 induced IFN-γ secretion from whole blood, pre-complexed, donor #92187 (human IL-33 [4]): 4.75 nM
- IC50, inhibition of 100 ng/mL IL-33/IL-12 induced IFN-γ secretion from whole blood, pre-complexed, donor #92257 (human IL-33 [4]): 2.66 nM
- IC50, inhibition of 100 ng/mL IL-33/IL-12 induced IFN-γ secretion from whole blood, pre-complexed, donor #92258 (human IL-33 [4]): 7.9 nM
- pIC50, inhibition of 100 ng/mL IL-33/IL-12 induced IFN-γ secretion from whole blood, pre-complexed, Mean (human IL-33 [4]): 8.48
- pIC50, inhibition of 100 ng/mL IL-33/IL-12 induced IFN-γ secretion from whole blood, pre-complexed, donor #91232 (human IL-33 [4]): 8.55
- pIC50, inhibition of 100 ng/mL IL-33/IL-12 induced IFN-γ secretion from whole blood, pre-complexed, donor #91845 (human IL-33 [4]): 8.24
- pIC50, inhibition of 100 ng/mL IL-33/IL-12 induced IFN-γ secretion from whole blood, pre-complexed, donor #91865 (human IL-33 [4]): 9.05
- pIC50, inhibition of 100 ng/mL IL-33/IL-12 induced IFN-γ secretion from whole blood, pre-complexed, donor #92023 (human IL-33 [4]): 8.46
- pIC50, inhibition of 100 ng/mL IL-33/IL-12 induced IFN-γ secretion from whole blood, pre-complexed, donor #92186 (human IL-33 [4]): 8.52
- pIC50, inhibition of 100 ng/mL IL-33/IL-12 induced IFN-γ secretion from whole blood, pre-complexed, donor #92187 (human IL-33 [4]): 8.32
- pIC50, inhibition of 100 ng/mL IL-33/IL-12 induced IFN-γ secretion from whole blood, pre-complexed, donor #92257 (human IL-33 [4]): 8.58
- pIC50, inhibition of 100 ng/mL IL-33/IL-12 induced IFN-γ secretion from whole blood, pre-complexed, donor #92258 (human IL-33 [4]): 8.1
- Kd (cynomolgus IL-33): 0.0275 nM
- IC50, inhibition of IL-33 (125 pM) induced IFN-γ secretion from CD4+ T cells, pre-complexed, Mean (human IL-33 [5]): 675 pM
- IC50, inhibition of IL-33 (125 pM) induced IFN-γ secretion from CD4+ T cells, pre-complexed, N = 1 (human IL-33 [5]): 1060 pM
- IC50, inhibition of IL-33 (125 pM) induced IFN-γ secretion from CD4+ T cells, pre-complexed, N = 2 (human IL-33 [5]): 936 pM
- IC50, inhibition of IL-33 (125 pM) induced IFN-γ secretion from CD4+ T cells, pre-complexed, N = 3 (human IL-33 [5]): 282 pM
- IC50, inhibition of IL-33 (125 pM) induced IFN-γ secretion from CD4+ T cells, pre-complexed, N = 4 (human IL-33 [5]): 591 pM
- IC50, inhibition of IL-33 (125 pM) induced IFN-γ secretion from CD4+ T cells, pre-complexed, N = 5 (human IL-33 [5]): 790 pM
- IC50, inhibition of IL-33 (125 pM) induced IFN-γ secretion from CD4+ T cells, pre-complexed, N = 6 (human IL-33 [5]): 497 pM
- IC50, inhibition of IL-33 (125 pM) induced IFN-γ secretion from CD4+ T cells, pre-complexed, N = 7 (human IL-33 [5]): 574 pM
- pIC50, inhibition of IL-33 (125 pM) induced IFN-γ secretion from CD4+ T cells, pre-complexed, Mean (human IL-33 [5]): 9.2
- pIC50, inhibition of IL-33 (125 pM) induced IFN-γ secretion from CD4+ T cells, pre-complexed, N = 1 (human IL-33 [5]): 8.97
- pIC50, inhibition of IL-33 (125 pM) induced IFN-γ secretion from CD4+ T cells, pre-complexed, N = 2 (human IL-33 [5]): 9.02
- pIC50, inhibition of IL-33 (125 pM) induced IFN-γ secretion from CD4+ T cells, pre-complexed, N = 3 (human IL-33 [5]): 9.54
- pIC50, inhibition of IL-33 (125 pM) induced IFN-γ secretion from CD4+ T cells, pre-complexed, N = 4 (human IL-33 [5]): 9.22
- pIC50, inhibition of IL-33 (125 pM) induced IFN-γ secretion from CD4+ T cells, pre-complexed, N = 5 (human IL-33 [5]): 9.1
- pIC50, inhibition of IL-33 (125 pM) induced IFN-γ secretion from CD4+ T cells, pre-complexed, N = 6 (human IL-33 [5]): 9.3
- pIC50, inhibition of IL-33 (125 pM) induced IFN-γ secretion from CD4+ T cells, pre-complexed, N = 7 (human IL-33 [5]): 9.24
B1: 22A06-458 (antibody, human IgG1, kappa)
heavy: QVQLVQSGAEVKKPGASVKVSCKASGYTFISYGMHWVRQAPGQGLEWMGEINPHGGSTSYAQKFKGRVTMTRDTSTSTVYMELSSLRSEDTAVYYCARPSAAYSHYLGIDLWGRGTLVTVSSASTKGPSVFPLAPSSKSTSGGTAALGCLVKDYFPEPVTVSWNSGALTSGVHTFPAVLQSSGLYSLSSVVTVPSSSLGTQTYICNVNHKPSNTKVDKKVEPKSCDKTHTCPPCPAPELLGGPSVFLFPPKPKDTLYITREPEVTCVVVDVSHEDPEVKFNWYVDGVEVHNAKTKPREEQYNSTYRVVSVLTVLHQDWLNGKEYKCKVSNKALPAPIEKTISKAKGQPREPQVYTLPPSRDELTKNQVSLTCLVKGFYPSDIAVEWESNGQPENNYKTTPPVLDSDGSFFLYSKLTVDKSRWQQGNVFSCSVMHEALHNHYTQKSLSLSPGK
light: DIQMTQSPSSVSASVGDRVTITCRASQGISSWLAWYQQKPGKAPKLLIYAASRLQSGVPSRFSGSGSGTDFTLTISSLQPEDFATYYCQQANVFPLTFGGGTKVEIKRTVAAPSVFIFPPSDEQLKSGTASVVCLLNNFYPREAKVQWKVDNALQSGNSQESVTEQDSKDSTYSLSSTLTLSKADYEKHKVYACEVTHQGLSSPVTKSFNRGEC
